Source: patent US8840891 (RSR, dated 2014)
Like-named read-outs stand apart in the source and are kept apart here.

Key:
[1] = molecular target: TSHR coated onto tubes (TSHR coated tubes) (human) (UniProt P16473); assay: TSHR coated tubes
[2] = molecular target: TSHR with Glu61 mutated to Alanine expressed on CHO cells (human) (UniProt P16473); assay: cell-based or functional assay
[3] = molecular target: wild type human TSHR (thyrotropin receptor) expressed on CHO cells (human) (UniProt P16473); assay: cell-based or functional assay
[4] = molecular target: TSHR with His105 mutated to Alanine expressed on CHO cells (human) (UniProt P16473); assay: cell-based or functional assay
[5] = molecular target: wild type human TSHR (thyrotropin receptor) expressed on CHO cells (human) (UniProt P16473); assay: cell-based or functional assay; remark: listed apart in the source
[6] = molecular target: TSHR with Asp203 mutated to Alanine expressed on CHO cells (human) (UniProt P16473); assay: cell-based or functional assay
[7] = molecular target: wild type human TSHR (thyrotropin receptor) expressed on CHO cells (human) (UniProt P16473); assay: cell-based or functional assay; remark: listed apart in the source
[8] = molecular target: TSHR coated onto tubes (TSHR coated tubes) (human) (UniProt P16473); assay: TSHR coated tubes, in presence of HBD pool

B1: 5C9 IgG (human monoclonal autoantibody to the TSHR) (antibody, from another filing, V domains shown)
VH: EVQLVESGGGLIQPGGSLRLSCAASGFTVSSNYMSWVRQAPGKGLEWVSVTYSGGSTSYADSVKGRFTISRDNSKNTLYLQMNSLRAEDTAVYYCARGGRYCSSISCYARSGCDYWGQGTLVTVSS
VL: AIQMTQSPSSLSASVGDRVTITCRASQSISNYLNWYQQKPGKAPKLLIYAASSLQSGVPSRFSGSGSGTDFTLTISSLQPEDFATYYCQQSYSSPSTTFGQGTKLEIK
In the case of B1, the average % binding of labelled tracer [1] is reported as 20%, the Cyclic AMP produced; 5C9 0.01 µg/mL + TSH (fmol/cell well) [2] is reported as 18000 and the Cyclic AMP produced; 5C9 0.1 µg/mL + TSH (fmol/cell well) [2] is reported as 2110. For the same binder, the Cyclic AMP produced; 5C9 1.0 µg/mL + TSH (fmol/cell well) [2] was 766, the Cyclic AMP produced; 5C9 10 µg/mL + TSH (fmol/cell well) [2] was 346 and the Cyclic AMP produced; 5C9 100 µg/mL + TSH (fmol/cell well) [2] was 328. The Cyclic AMP produced; 5C9 100 µg/mL only (fmol/cell well) [2] was 254, the Mutated/wild type (%); 5C9 0.01 µg/mL + TSH [2] was 131% and the Mutated/wild type (%); 5C9 0.1 µg/mL + TSH [2] was 73%. For the same binder, the Mutated/wild type (%); 5C9 1.0 µg/mL + TSH [2] was 143%, the Mutated/wild type (%); 5C9 10 µg/mL + TSH [2] was 136% and the Mutated/wild type (%); 5C9 100 µg/mL + TSH [2] was 162%. The Mutated/wild type (%); 5C9 100 µg/mL only [2] was 117%, the Cyclic AMP produced; 5C9 0.01 µg/mL + TSH (fmol/cell well) [3] was 13800 and the Cyclic AMP produced; 5C9 0.1 µg/mL + TSH (fmol/cell well) [3] was 2890. For the same binder, the Cyclic AMP produced; 5C9 1.0 µg/mL + TSH (fmol/cell well) [3] was 536, the Cyclic AMP produced; 5C9 10 µg/mL + TSH (fmol/cell well) [3] was 254 and the Cyclic AMP produced; 5C9 100 µg/mL + TSH (fmol/cell well) [3] was 202. It also gave a Cyclic AMP produced; 5C9 100 µg/mL only (fmol/cell well) [3] of 218, a Cyclic AMP produced; 5C9 0.01 µg/mL + TSH (fmol/cell well) [4] of 24200 and a Cyclic AMP produced; 5C9 0.1 µg/mL + TSH (fmol/cell well) [4] of 2870. The Cyclic AMP produced; 5C9 1.0 µg/mL + TSH (fmol/cell well) [4] was 561, the Cyclic AMP produced; 5C9 10 µg/mL + TSH (fmol/cell well) [4] was 434 and the Cyclic AMP produced; 5C9 100 µg/mL + TSH (fmol/cell well) [4] was 134. It also gave a Cyclic AMP produced; 5C9 100 µg/mL only (fmol/cell well) [4] of 520, a Mutated/wild type (%); 5C9 0.01 µg/mL + TSH [4] of 145% and a Mutated/wild type (%); 5C9 0.1 µg/mL + TSH [4] of 82%. It also gave a Mutated/wild type (%); 5C9 1.0 µg/mL + TSH [4] of 124%, a Mutated/wild type (%); 5C9 10 µg/mL + TSH [4] of 150% and a Mutated/wild type (%); 5C9 100 µg/mL + TSH [4] of 60%. It also gave a Mutated/wild type (%); 5C9 100 µg/mL only [4] of 222%, a Cyclic AMP produced; 5C9 0.01 µg/mL + TSH (fmol/cell well) [5] of 16700 and a Cyclic AMP produced; 5C9 0.1 µg/mL + TSH (fmol/cell well) [5] of 3510. For the same binder, the Cyclic AMP produced; 5C9 1.0 µg/mL + TSH (fmol/cell well) [5] was 454, the Cyclic AMP produced; 5C9 10 µg/mL + TSH (fmol/cell well) [5] was 289 and the Cyclic AMP produced; 5C9 100 µg/mL + TSH (fmol/cell well) [5] was 223. It also gave a Cyclic AMP produced; 5C9 100 µg/mL only (fmol/cell well) [5] of 234, a Cyclic AMP produced; 5C9 0.01 µg/mL + TSH (fmol/cell well) [6] of 14700 and a Cyclic AMP produced; 5C9 0.1 µg/mL + TSH (fmol/cell well) [6] of 13100. For the same binder, the Cyclic AMP produced; 5C9 1.0 µg/mL + TSH (fmol/cell well) [6] was 14700, the Cyclic AMP produced; 5C9 10 µg/mL + TSH (fmol/cell well) [6] was 12600 and the Cyclic AMP produced; 5C9 100 µg/mL + TSH (fmol/cell well) [6] was 12700. It also gave a Cyclic AMP produced; 5C9 100 µg/mL only (fmol/cell well) [6] of 1370, a Mutated/wild type (%); 5C9 0.01 µg/mL + TSH [6] of 95% and a Mutated/wild type (%); 5C9 0.1 µg/mL + TSH [6] of 296%. It also gave a Mutated/wild type (%); 5C9 1.0 µg/mL + TSH [6] of 1090%, a Mutated/wild type (%); 5C9 10 µg/mL + TSH [6] of 1570% and a Mutated/wild type (%); 5C9 100 µg/mL + TSH [6] of 3450%. The Mutated/wild type (%); 5C9 100 µg/mL only [6] was 415%, the Cyclic AMP produced; 5C9 0.01 µg/mL + TSH (fmol/cell well) [7] was 15500 and the Cyclic AMP produced; 5C9 0.1 µg/mL + TSH (fmol/cell well) [7] was 4440. The Cyclic AMP produced; 5C9 1.0 µg/mL + TSH (fmol/cell well) [7] was 1350, the Cyclic AMP produced; 5C9 10 µg/mL + TSH (fmol/cell well) [7] was 807 and the Cyclic AMP produced; 5C9 100 µg/mL + TSH (fmol/cell well) [7] was 367. It also gave a Cyclic AMP produced; 5C9 100 µg/mL only (fmol/cell well) [7] of 330 and a % binding of labelled tracer [8] of 20%.
